This note sets out measurements from publication PMC5499675 (2017).

Test [1] concerns the target T1, IGRP peptide on HLA-DRA*01:01 / HLA-DRB1*04:01 (human).
T1 peptide: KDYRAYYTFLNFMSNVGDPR
Kind of test: multimer staining.

The target in test [2] is T2, IGRP peptide on HLA-DRA*01:01 / HLA-DRB1*04:01 (human). Nature of the test: multimer staining. The source holds these as a separate data set.
Test [3] concerns the target IGRP peptide on HLA-DRA*01:01 / HLA-DRB1*04:01 (human). Nature of the test: multimer staining. This is another data set of the same source.
The target in test [4] is T3, influenza hemagglutinin peptide on HLA-DRA*01:01 / HLA-DRB1*04:01 (human).
T3 peptide: PRYVKQNTLKLAT
Nature of the test: multimer staining.

Test [5] addresses T1, IGRP peptide on HLA-DRA*01:01 / …. Nature of the test: proliferation.
Test [6] has as its target T2, IGRP peptide on HLA-DRA*01:01 / …. Nature of the test: proliferation. This is another data set of the same source.

B1: Expanded TCR clonotype from subject T1D2 (Sequences 1 and 2) (TCR)
alpha TRAV29 TRAJ40 CDR3: CAATRTSGTYKYIF
beta TRBV6-6 TRBJ2-3 CDR3: CASSPWGAGGTDTQYF
Take B1: the binding result in test [1] is “no recognition”; in test [2], “recognises”; in test [3], “no recognition”; in test [4], “no recognition”.

B2: Expanded TCR clonotype from subject T1D4 (Sequences 3 and 4) (TCR)
alpha TRAV2 TRAJ15 CDR3: CAVEDLNQAGTALIF
beta TRBV5-1 TRBJ2-1 CDR3: CASSLALGQGNQQFF
B2: the binding result was “recognises” in test [3], “no recognition” in test [4], “no recognition” in test [5] and “no recognition” in test [6].
